In the assay the target is T1, PHYTOCHROME-INTERACTING FACTOR 7 with Flash tag (35S::PIF7-Flash; 9xMyc-6xHis-3xFlag) (Arabidopsis thaliana, UniProt Q570R7 1-366).
T1 sequence (looked up): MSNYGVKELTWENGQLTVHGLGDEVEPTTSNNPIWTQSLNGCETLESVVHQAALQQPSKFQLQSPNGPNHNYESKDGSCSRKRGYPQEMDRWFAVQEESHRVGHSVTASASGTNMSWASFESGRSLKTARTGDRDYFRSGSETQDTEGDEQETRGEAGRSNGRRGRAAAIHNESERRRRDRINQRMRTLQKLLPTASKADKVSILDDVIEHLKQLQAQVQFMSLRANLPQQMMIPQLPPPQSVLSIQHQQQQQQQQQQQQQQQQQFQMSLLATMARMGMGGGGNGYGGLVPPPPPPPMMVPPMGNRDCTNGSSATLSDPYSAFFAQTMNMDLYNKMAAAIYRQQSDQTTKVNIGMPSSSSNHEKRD
The assay can be described thus: co-IP.

B1: ANGUSTIFOLIA3 / GRF-INTERACTING FACTOR 1 with GS^yellow tag (35S::AN3-GS^yellow) (natural protein, Arabidopsis thaliana, UniProt Q8L8A5 1-210, looked up)
chain: MQQHLMQMQPMMAGYYPSNVTSDHIQQYLDENKSLILKIVESQNSGKLSECAENQARLQRNLMYLAAIADSQPQPPSVHSQYGSAGGGMIQGEGGSHYLQQQQATQQQQMTQQSLMAARSSMLYAQQQQQQQPYATLQHQQLHHSQLGMSSSSGGGGSSGLHILQGEAGGFHDFGRGKPEMGSGGGGEGRGGSSGDGGETLYLKSSDDGN
B1: the binding result is recorded as “binds”.

(Values after article PMC8812563 (Proceedings of the National Academy of Sciences of the …, 2022).)
